According to the Human Domainome abundance scans (Beltran et al. 2025):
± gives the uncertainty stated by the source.

B1: Far upstream element-binding protein 1, residues 98 to 169; numbered along this chain, Q96AE4 (parent)
chain: RSVMTEEYKVPDGMVGFIIGRGGEQISRIQQESGCKIQIAPDSGGLPERSCMLTGTPESVQSAKRLLDQIVE

Variants of: B1
Test: abundance fitness (aPCA) (normalised: wild type 0, dead -1); higher = more abundant; growth selection in yeast, the domain comes from the species named
Details: Homo sapiens

Variant | abundance fitness
RSVMTEEYKVPDGMVGFIIGRGGEFISRIQQESGCKIQIAPDSGGLPERSCMLTGTPESVQSAKRLLDQIVE [Q25F] | -0.242 ± 0.054
RSVMTEEYKVPDGMVGFIIGRGGEGISRIQQESGCKIQIAPDSGGLPERSCMLTGTPESVQSAKRLLDQIVE [Q25G] | -0.035 ± 0.022
RSVMTEEYKVPDGMVGFIIGRGGEKISRIQQESGCKIQIAPDSGGLPERSCMLTGTPESVQSAKRLLDQIVE [Q25K] | -0.013 ± 0.038
RSVMTEEYKVPDGMVGFIIGRGGEAISRIQQESGCKIQIAPDSGGLPERSCMLTGTPESVQSAKRLLDQIVE [Q25A] | -0.088 ± 0.027
RSVMTEEYKVPDGMVGFIIGRGGECISRIQQESGCKIQIAPDSGGLPERSCMLTGTPESVQSAKRLLDQIVE [Q25C] | -0.054 ± 0.034
RSVMTEEYKVPDGMVGFIIGRGGELISRIQQESGCKIQIAPDSGGLPERSCMLTGTPESVQSAKRLLDQIVE [Q25L] | -0.108 ± 0.027
RSVMTEEYKVPDGMVGFIIGRGGEEISRIQQESGCKIQIAPDSGGLPERSCMLTGTPESVQSAKRLLDQIVE [Q25E] | 0.036 ± 0.03
RSVMTEEYKVPDGMVGFIIGRGGENISRIQQESGCKIQIAPDSGGLPERSCMLTGTPESVQSAKRLLDQIVE [Q25N] | -0.107 ± 0.048
RSVMTEEYKVPDGMVGFIIGRGGEMISRIQQESGCKIQIAPDSGGLPERSCMLTGTPESVQSAKRLLDQIVE [Q25M] | -0.027 ± 0.038
RSVMTEEYKVPDGMVGFIIGRGGEDISRIQQESGCKIQIAPDSGGLPERSCMLTGTPESVQSAKRLLDQIVE [Q25D] | -0.071 ± 0.04
RSVMTEEYKVPDGMVGFIIGRGGERISRIQQESGCKIQIAPDSGGLPERSCMLTGTPESVQSAKRLLDQIVE [Q25R] | -0.016 ± 0.022
RSVMTEEYKVPDGMVGFIIGRGGEHISRIQQESGCKIQIAPDSGGLPERSCMLTGTPESVQSAKRLLDQIVE [Q25H] | -0.021 ± 0.043
RSVMTEEYKVPDGMVGFIIGRGREQISRIQQESGCKIQIAPDSGGLPERSCMLTGTPESVQSAKRLLDQIVE [G23R] | -0.044 ± 0.024
RSVMTEEYKVPDGMVGFIIGRGMEQISRIQQESGCKIQIAPDSGGLPERSCMLTGTPESVQSAKRLLDQIVE [G23M] | -0.037 ± 0.04
RSVMTEEYKVPDGMVGFIIGRGVEQISRIQQESGCKIQIAPDSGGLPERSCMLTGTPESVQSAKRLLDQIVE [G23V] | -0.157 ± 0.029
RSVMTEEYKVPDGMVGFIIGRGWEQISRIQQESGCKIQIAPDSGGLPERSCMLTGTPESVQSAKRLLDQIVE [G23W] | -0.101 ± 0.031
RSVMTEEYKVPDGMVGFIIGRGTEQISRIQQESGCKIQIAPDSGGLPERSCMLTGTPESVQSAKRLLDQIVE [G23T] | -0.127 ± 0.038
RSVMTEEYKVPDGMVGFIIGRGNEQISRIQQESGCKIQIAPDSGGLPERSCMLTGTPESVQSAKRLLDQIVE [G23N] | -0.055 ± 0.059
RSVMTEEYKVPDGMVGFIIGRGPEQISRIQQESGCKIQIAPDSGGLPERSCMLTGTPESVQSAKRLLDQIVE [G23P] | -0.181 ± 0.033

Variant | abundance fitness
RSVMTEEYKVPDGMVGFIIGRGQEQISRIQQESGCKIQIAPDSGGLPERSCMLTGTPESVQSAKRLLDQIVE [G23Q] | -0.062 ± 0.034
RSVMTEEYKVPDGMVGFIIGRGYEQISRIQQESGCKIQIAPDSGGLPERSCMLTGTPESVQSAKRLLDQIVE [G23Y] | -0.072 ± 0.052
RSVMTEEYKVPDGMVGFIIGRGSEQISRIQQESGCKIQIAPDSGGLPERSCMLTGTPESVQSAKRLLDQIVE [G23S] | -0.061 ± 0.029
RSVMTEEYKVPDGMVGFIIGRGGLQISRIQQESGCKIQIAPDSGGLPERSCMLTGTPESVQSAKRLLDQIVE [E24L] | -0.108 ± 0.03
RSVMTEEYKVPDGMVGFIIGRGGDQISRIQQESGCKIQIAPDSGGLPERSCMLTGTPESVQSAKRLLDQIVE [E24D] | -0.064 ± 0.046
RSVMTEEYKVPDGMVGFIIGRGGSQISRIQQESGCKIQIAPDSGGLPERSCMLTGTPESVQSAKRLLDQIVE [E24S] | -0.026 ± 0.029
RSVMTEEYKVPDGMVGFIIGRGGWQISRIQQESGCKIQIAPDSGGLPERSCMLTGTPESVQSAKRLLDQIVE [E24W] | 0.171 ± 0.032
RSVMTEEYKVPDGMVGFIIGRGGKQISRIQQESGCKIQIAPDSGGLPERSCMLTGTPESVQSAKRLLDQIVE [E24K] | -0.035 ± 0.041
RSVMTEEYKVPDGMVGFIIGRGGAQISRIQQESGCKIQIAPDSGGLPERSCMLTGTPESVQSAKRLLDQIVE [E24A] | -0.032 ± 0.03
RSVMTEEYKVPDGMVGFIIGRGGFQISRIQQESGCKIQIAPDSGGLPERSCMLTGTPESVQSAKRLLDQIVE [E24F] | -0.013 ± 0.061
RSVMTEEYKVPDGMVGFIIGRGGIQISRIQQESGCKIQIAPDSGGLPERSCMLTGTPESVQSAKRLLDQIVE [E24I] | -0.035 ± 0.049
RSVMTEEYKVPDGMVGFIIGRGGQQISRIQQESGCKIQIAPDSGGLPERSCMLTGTPESVQSAKRLLDQIVE [E24Q] | -0.084 ± 0.039
RSVMTEEYKVPDGMVGFIIGRGGCQISRIQQESGCKIQIAPDSGGLPERSCMLTGTPESVQSAKRLLDQIVE [E24C] | -0.082 ± 0.042
RSVMTEEYKVPDGMVGFIIGRGGTQISRIQQESGCKIQIAPDSGGLPERSCMLTGTPESVQSAKRLLDQIVE [E24T] | -0.035 ± 0.037
RSVMTEEYKVPDGMVGFIIGRGGGQISRIQQESGCKIQIAPDSGGLPERSCMLTGTPESVQSAKRLLDQIVE [E24G] | -0.057 ± 0.025
RSVMTEEYKVPDGMVGFIIGRGGNQISRIQQESGCKIQIAPDSGGLPERSCMLTGTPESVQSAKRLLDQIVE [E24N] | -0.163 ± 0.074
RSVMTEEYKVPDGMVGFIIGRGGHQISRIQQESGCKIQIAPDSGGLPERSCMLTGTPESVQSAKRLLDQIVE [E24H] | 0.026 ± 0.058
RSVMTEEYKVPDGMVGFIIGRGGVQISRIQQESGCKIQIAPDSGGLPERSCMLTGTPESVQSAKRLLDQIVE [E24V] | -0.072 ± 0.028
RSVMTEEYKVPDGMVGFIIGRGGMQISRIQQESGCKIQIAPDSGGLPERSCMLTGTPESVQSAKRLLDQIVE [E24M] | -0.093 ± 0.041
